Reference: patent US6645934B1, “Peptide with radio protective effect” (Eberhard-Karls-Universität Tübingen, priority 1997, dated 2003)
Bridges are numbered along the chain shown (N, C = ends).

Key:
[1] = test system: human skin fibroblasts; test: Clonogenic assay with human skin fibroblasts under UV-B irradiation; assay type: cell-based; conditions: UV-B radiation at 100 J/m^2, FIG. 6; for effect on clonogenic survival, further increase over that of complete BBI / effect on clonogenic survival compared with complete BBI: peptides 80 μM vs BBI 10 μM; for increase in clonogenic survival of the human skin fibroblasts compared to the untreated cells: BBI 10 μM, peptides 80 μM
Method: (§1) Normal human fibroblasts were cultivated in Dulbecco's Modified Eagles Medium (DMEM) with 10% fetal calf serum under standard conditions. At each cell passage the number of cells was counted, and the cells were seed with a density of 2×10^4/cm^2 when subcultures were set up.
(§2) For the clonogenic assay, secondary fibroblasts were trypsinated with 0.05% trypsin and 0.1 EDTA, and seed at a cell density of 50 cells per cm^2 into six-well tissue culture dishes. The cells were cultivated with 2 ml DMEM with 20% fetal calf serum per well.
(§3) After 24 hours the medium was removed and the cells were incubated for 16 hours either in additive-free control mediums (“0” in the Figures) or in medium that contained 10 μM of either BBI or a modified BBI form or a BBI fragment. The nonapeptides and heptapeptide according to the present invention (see Example 3) were used at a concentration of 80 μM.
(§4) The cells were then cultivated for a further eight days in BBI-free culture medium in order to allow colonies to form. The cells were then fixed, stained, and counted; in the Figures, “K” indicates the absolute number of clones counted.
(§5) A clone is a colony or a cell cluster resulting from the division of one cell during the eight-day cultivation period. The number of clones corresponds to the degree to which the human fibroblasts survived the irradiation. This will therefore also be referred to hereinafter as the “clonogenic survival” of the cells. If many cells die when the cells are irradiated, then only a few clones will form after eight days; if many cells survive, then many clones may be counted after eight days of cultivation. The clonogenic survival of the cells after irradiation is thus a direct indication of the radioprotective effect of the BBI product being used.
Once again a clonogenic assay was performed, using complete BBI or the four peptides P1 through P4.
In this case irradiation was performed with UV-B radiation at 100 J/m^2.

[2] = biological target: TLCK-treated chymotrypsin (Bos taurus, UniProt P00766); test: Protease inhibition test, chymotrypsin; assay type: biochemical
Method: (§6) A batch containing 50 μl TLCK-treated chymotrypsin (0.1 mg/ml) was incubated for 10 minutes in 12.5% DMSO and 87.5% PBS with 50 μl of a solution having BBI (BBI), reduced BBI (BBI-R), or reduced and alkylated BBI (BBI-A) together with 50 μl PBS and 50 μl of the chymotrypsin substrate acetyl-A-A-P-F-pNa (0.5 mg/ml, of Bachem Heidelberg, Germany). The colored reaction product was detected at 405 nm in a spectrophotometer.
A batch without BBI (0) was run as control, and its measured value was taken as 100% chymotrypsin activity (% CH). The blank value with buffer alone is labeled “-” and indicates the cuvette and buffer solution background.

[3] = biological target: T1, TPCK-treated trypsin (Bos taurus, UniProt P00760); test: Protease inhibition test, trypsin; assay type: biochemical; conditions: FIG. 8
T1 sequence (P00760 24-246): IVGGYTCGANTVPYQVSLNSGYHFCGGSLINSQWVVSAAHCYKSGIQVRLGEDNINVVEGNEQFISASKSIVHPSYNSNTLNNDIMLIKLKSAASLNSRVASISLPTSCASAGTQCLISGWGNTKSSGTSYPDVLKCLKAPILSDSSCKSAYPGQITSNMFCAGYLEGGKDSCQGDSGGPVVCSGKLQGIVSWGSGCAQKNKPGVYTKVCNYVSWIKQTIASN
Method: as §6
If inhibition of the protease trypsin (see Example 4, FIG. 8) was to be determined, TPCK-treated trypsin (0.1 mg/ml) and the peptide CBZ-R-pNa (1 mg/ml) as substrate were used, and the test was otherwise performed as described.

[4] = test system: Normal human fibroblasts; test: Clonogenic assay with normal human fibroblasts under ionizing radiation; assay type: cell-based; conditions: for radioprotective effect compared with complete BBI and the other peptides (clonogenic assay): single dose of 4 Gy, peptides 80 μM, complete BBI 10 μM, FIG. 5; for influence on survival of the cells without irradiation (clonogenic assay): 0 Gy, 10 μM, 16 h incubation, FIG. 1
Method: The examination of the radioprotective effect of BBI and of modified forms of BBI was performed as a so-called clonogenic assay, which is described, for example, in K. Dittmann et al., Radiotherapy and Oncology 34 (1995), pages 137-143, and is explained briefly below.
as §1, §2, §3
This was followed by irradiation with ionizing radiation, the energy dose being either 2 or 4 gray (Gy). This energy dose corresponds to the entire converted radiation energy given in mass unit Joule/kg=(gray). A 6 MeV linear accelerator (Mevatron, Siemens) was used for irradiation.
as §4, §5

[5] = biological target: chymotrypsin (TLCK-treated); test: cell-based or functional assay
[6] = biological target: trypsin (TPCK-treated); test: cell-based or functional assay
[7] = test system: Normal human fibroblasts; conditions: publication of Dittmann et al.; cited from earlier work
[8] = FIG. 2, control without BBI = 100% chymotrypsin activity

Peptide P2: heptapeptide SEQ ID NO: 3, no cysteine residues, linear; acetyl and amide protective groups (Ac-ALSYPAQ-NH2)
effect on clonogenic survival, further increase over that of complete BBI [1]: 20% | inhibition of chymotrypsin activity ([2]; 0.1 mM, FIG. 7): only a few percent or not at all | inhibition of the activity of trypsin ([3]; 0.1 mM): no effect on the activity of trypsin

Peptide P4: nonapeptide SEQ ID NO: 2 (serine to valine exchange), terminal cysteines not crosslinked; acetyl and amide protective groups (Ac-CALVYPAQC-NH2; cysteine pairing not given here)
increase in clonogenic survival of the human skin fibroblasts compared to the untreated cells [1]: significantly increased | effect on clonogenic survival compared with complete BBI [1]: less of an effect than complete BBI | inhibition of chymotrypsin activity ([2]; 0.1 mM, FIG. 7): only a few percent or not at all | inhibition of the activity of trypsin ([3]; 0.1 mM): no effect on the activity of trypsin

Peptide P3: nonapeptide SEQ ID NO: 1, terminal cysteine residues not crosslinked; acetyl and amide protective groups (Ac-CALSYPAQC-NH2; cysteine pairing not given here)
effect on clonogenic survival, further increase over that of complete BBI [1]: 20% | inhibition of chymotrypsin activity ([2]; 0.1 mM, FIG. 7): only a few percent or not at all | radioprotective effect compared with complete BBI and the other peptides (clonogenic assay) [4]: even more pronounced radioprotective effect than peptides P2 (heptapeptide) and P4 | inhibition of the activity of trypsin ([3]; 0.1 mM): no effect on the activity of trypsin

Peptide P1: nonapeptide SEQ ID NO: 1, terminal cysteine residues crosslinked with a disulfide bond; acetyl and amide protective groups (Ac-CALSYPAQC-NH2; disulfide 1-9; SMILES CC(=O)N[C@H]1CSSC[C@@H](C(N)=O)NC(=O)[C@H](CCC(N)=O)NC(=O)[C@H](C)NC(=O)[C@@H]2CCCN2C(=O)[C@H](Cc2ccc(O)cc2)NC(=O)[C@H](CO)NC(=O)[C@H](CC(C)C)NC(=O)[C@H](C)NC1=O)
effect on clonogenic survival compared with complete BBI [1]: just as pronounced an effect as the addition of complete BBI | inhibition of chymotrypsin activity ([2]; 0.1 mM, FIG. 7): only a few percent or not at all | radioprotective effect compared with complete BBI and the other peptides (clonogenic assay) [4]: even more pronounced radioprotective effect than peptides P2 (heptapeptide) and P4 | inhibition of the activity of trypsin ([3]; 0.1 mM): no effect on the activity of trypsin

B1: Bowman-Birk Protease Inhibitor (BBI), complete (protein, soybean, UniProt P01055 40-110, looked up)
chain: DDESSKPCCDQCACTKSNPPQCRCSDMRLNSCHSACKSCICALSYPAQCFCVDITDFCYEPCKPSEDDKEN
inhibition of chymotrypsin activity (substrate acetyl-A-A-P-F-pNa, 405 nm) [5]: 80% | inhibition of chymotrypsin activity at 0.05 mM BBI [5]: 80% | inhibition of chymotrypsin activity at 0.1 mM BBI [5]: 90% | inhibition of trypsin activity at 0.05 mM BBI (substrate CBZ-R-pNa) [6]: > 90% | inhibition of trypsin activity at 0.1 mM BBI (substrate CBZ-R-pNa) [6]: > 90%

B2: reduced BBI (BBI-R) (protein, soybean, UniProt P01055 40-110, looked up)
chain: DDESSKPCCDQCACTKSNPPQCRCSDMRLNSCHSACKSCICALSYPAQCFCVDITDFCYEPCKPSEDDKEN
modifications: pretreated with dithiothreitol (DTT) so that all the disulfide bonds in the BBI were cleaved (cysteines reduced)
inhibition of chymotrypsin activity (substrate acetyl-A-A-P-F-pNa, 405 nm) [5]: 30%

B3: BBI-A: BBI first reduced, cysteine residues then alkylated with iodoacetamide to prevent reoxidation (protein)
chain: DDESSKPCCDQCACTKSNPPQCRCSDMRLNSCHSACKSCICALSYPAQCFCVDITDFCYEPCKPSEDDKEN
inhibition of chymotrypsin activity [2, 8]: no longer capable of inhibiting chymotrypsin activity | influence on survival of the cells without irradiation (clonogenic assay) [4]: does not influence survival of the cells within experimental error

B4: BBI-R: complete BBI pretreated with the reducing agent dithiothreitol (DTT), so that all the disulfide bonds were cleaved (protein)
chain: DDESSKPCCDQCACTKSNPPQCRCSDMRLNSCHSACKSCICALSYPAQCFCVDITDFCYEPCKPSEDDKEN
modifications: cyclised or stapled
notes: complete BBI pretreated with the reducing agent dithiothreitol (DTT), so that all the disulfide bonds were cleaved
inhibition of chymotrypsin activity [2, 8]: about 30% | influence on survival of the cells without irradiation (clonogenic assay) [4]: does not influence survival of the cells within experimental error

B5: Bowman-Birk Protease Inhibitor (protein)
chain: DDESSKPCCDQCACTKSNPPQCRCSDMRLNSCHSACKSCICALSYPAQCFCVDITDFCYEPCKPSEDDKEN
notes: complete BBI (from Sigma Biochemicals)
increase in clonogenic survival of the human skin fibroblasts compared to the untreated cells [1]: approximately 40% | radiation-induced mortality of cultivated human fibroblasts [7]: decreases the radiation-induced mortality | inhibition of chymotrypsin activity ([2]; 0.05 mM, FIG. 7): 80% | inhibition of chymotrypsin activity ([2]; 0.1 mM, FIG. 7): 90% | inhibition of chymotrypsin activity [2, 8]: 80% | influence on survival of the cells without irradiation (clonogenic assay) [4]: does not influence survival of the cells within experimental error | inhibition of the activity of trypsin ([3]; 0.05 mM): more than 90% | inhibition of the activity of trypsin ([3]; 0.1 mM): more than 90%
